{"source": "patent US20180222961A1", "about": "(IMMATICS BIOTECHNOLOGIES, published 2018)", "data": [{"target": "T1, HLA-B*07:02 (human)", "T1 construct": "also called peptide-receptive MHC molecules", "test": "UV-exchange b2m ELISA; exchange-yield grade", "source_text": "Candidate peptides for T cell based therapies according to the present invention were further tested for their MHC binding capacity (affinity). The individual peptide-MHC complexes were produced by UV-ligand exchange, where a UV-sensitive peptide is cleaved upon UV-irradiation, and exchanged with the peptide of interest as analyzed. Only peptide candidates that can effectively bind and stabilize the peptide-receptive MHC molecules prevent dissociation of the MHC complexes. To determine the yield of the exchange reaction, an ELISA was performed based on the detection of the light chain (β2m) of stabilized MHC complexes. The assay was performed as generally described in Rodenko et al. (Rodenko et al., 2006).\n96 well MAXISorp plates (NUNC) were coated over night with 2 ug/ml streptavidin in PBS at room temperature, washed 4× and blocked for 1 h at 37° C. in 2% BSA containing blocking buffer. Refolded HLA-A*02:01/MLA-001 monomers served as standards, covering the range of 15-500 ng/ml. Peptide-MHC monomers of the UV-exchange reaction were diluted 100-fold in blocking buffer. Samples were incubated for 1 h at 37° C., washed four times, incubated with 2 ug/ml HRP conjugated anti-β2m for 1 h at 37° C., washed again and detected with TMB solution that is stopped with […]. Absorption was measured at 450 nm. Candidate peptides that show a high exchange yield (preferably higher than 50%, most preferred higher than 75%) are generally preferred for a generation and production of antibodies or fragments thereof, and/or T cell receptors or fragments thereof, as they show sufficient avidity to the MHC molecules and prevent dissociation of the MHC complexes.", "units": {"peptide exchange yield": "%"}, "values": [{"binder": "EPVTSSLPNF", "peptide exchange yield": "20 to 50"}, {"binder": "SPDPSKHLL", "peptide exchange yield": "20 to 50"}, {"binder": "HPVETSSAL", "peptide exchange yield": "50 to 75"}, {"binder": "SPAEPSVYATL", "peptide exchange yield": "> 75"}, {"binder": "HPDPVGPGL", "peptide exchange yield": "20 to 50"}, {"binder": "GPRNAQRVL", "peptide exchange yield": "50 to 75"}, {"binder": "HVTKTQATF", "peptide exchange yield": "20 to 50"}, {"binder": "FPHSEMTTL", "peptide exchange yield": "50 to 75"}, {"binder": "FPHSEMTTV", "peptide exchange yield": "50 to 75"}, {"binder": "SPMDTFLLI", "peptide exchange yield": "20 to 50"}, {"binder": "SPLPVTSLI", "peptide exchange yield": "50 to 75"}, {"binder": "SPLPVTSLL", "peptide exchange yield": "50 to 75"}, {"binder": "FPFVTGSTEM", "peptide exchange yield": "20 to 50"}, {"binder": "FPMSPVTSV", "peptide exchange yield": "50 to 75"}, {"binder": "LPSVSGVKTTF", "peptide exchange yield": "20 to 50"}, {"binder": "LPLGTSMTF", "peptide exchange yield": "50 to 75"}, {"binder": "LPTSESLVSF", "peptide exchange yield": "20 to 50"}, {"binder": "LPLDTSTTL", "peptide exchange yield": "50 to 75"}, {"binder": "HPKTESATPAAY", "peptide exchange yield": "20 to 50"}, {"binder": "VPSEIDAAF", "peptide exchange yield": "20 to 50"}, {"binder": "LPTQTTSSL", "peptide exchange yield": "50 to 75"}, {"binder": "FPAMTESGGMIL", "peptide exchange yield": "50 to 75"}, {"binder": "FPNRLNLEA", "peptide exchange yield": "50 to 75"}, {"binder": "FPHSEMTTVM", "peptide exchange yield": "50 to 75"}, {"binder": "FPHPEMTTSM", "peptide exchange yield": "50 to 75"}, {"binder": "FPYSEVTTL", "peptide exchange yield": "50 to 75"}, {"binder": "LPAGTTGSLVF", "peptide exchange yield": "50 to 75"}, {"binder": "VPYRVVGL", "peptide exchange yield": "20 to 50"}, {"binder": "RPMPNLRSV", "peptide exchange yield": "50 to 75"}, {"binder": "LPEISTRTM", "peptide exchange yield": "20 to 50"}]}]}
